Measurements from patent US11633477B2, “Treatment of cornea using laminin” (KYOTO PREFECTURAL PUBLIC UNIVERSITY CORPORATION, priority 2014, dated 2023).
Where a name gives a salt, the structure may show the parent alone.

B1: laminin 511-E8 fragment: E8 fragment of human laminin α5β1γ1 (Nippi. Inc., 382-02413) (protein)
chain 1: AAEDAAGQALQQADHTWATVVRQGLVDRAQQLLANSTALEEAMLQEQQRLGLVWAALQGARTQLRDVRAKKDQLEAHIQAAQAMLAMDTDETSKKIAHAKAVAAEAQDTATRVQSQLQAMQENVERWQGQYEGLRGQDLGQAVLDAGHSVSTLEKTLPQLLAKLSILENRGVHNASLALSASIGRVRELIAQARGAASKVKVPMKFNGRSGVQLRTPRDLADLAAYTALKFYLQGPEPEPGQGTEDRFVMYMGSRQATGDYMGVSLRDKKVHWVYQLGEAGPAVLSIDEDIGEQFAAVSLDRTLQFGHMSVTVERQMIQETKGDTVAPGAEGLLNLRPDDFVFYVGGYPSTFTPPPLLRFPGYRGCIEMDTLNEEVVSLYNFERTFQLDTAVDRPCARSKSTGDPWLTDGSYLDGTGFARISFDSQISTTKRFEQELRLVSYSGVLFFLKQQSQFLCLAVQEGSLVLLYDFGAGLKKAVPLQPPPPLTSASKAIQVFLLGGSRKRVLVRVERATVYSVEQDNDLELADAYYLGGVPPDQLPPSLRRLFPTGGSVRGCVKGIKALGKYVDLKRLNTTGVSAGCTADLLVGRAMTFHGHGFLRLALSNVAPLTGNVYSGFGFHSAQDSALLYYRASPDGLCQVSLQQGRVSLQLLRTEVKTQAGFADGAPHYVAFYSNATGVWLYVDDQLQQMKPHRGPPPELQPQPEGPPRLLLGGLPESGTIYNFSGCISNVFVQRLLGPQRVFDLQQNLGSVNVSTGCAPALQAQTPGLGPRGLQATARKASRRSRQPARHPA
chain 2: LQHSAADIARAEMLLEEAKRASKSATDVKVTADMVKEALEEAEKAQVAAEKAIKQADEDIQGTQNLLTSIESETAASEETLFNASQRISELERNVEELKRKAAQNSGEAEYIEKVVYTVKQSAEDVKKTLDGELDEKYKKVENLIAKKTEESADARRKAEMLQNEAKTLLAQANSKLQLLKDLERKYEDNQRYLEDKAQELARLEGEVRSLLKDISQKVAVYSTCL
chain 3: EANDILNNLKDFDRRVNDNKTAAEEALRKIPAINQTITEANEKTREAQQALGSAAADATEAKNKAHEAERIASAVQKNATSTKAEAERTFAEVTDLDNEVNNMLKQLQEAEKELKRKQDDADQDMMMAGMASQAAQEAEINARKAKNSVTSLLSIINDLLEQLGQLDTVDLNKLNEIEGTLNKAKDEMKVSDLDRKVSDLENEAKKQEAAIMDYNRDIEEIMKDIRNLEDIRKTLPSGCFNTPSIEKP

Columns and labels:
[1] = system: rabbit bullous keratopathy model; assay: Adhesion of injected cells to substrate after 24 hours in rabbit bullous keratopathy model, laminin with ROCK inhibitor; assay type: in vivo; settings: average; 24 hours after injection of cultured RCEC into anterior chamber; Y-27632 100 μM in both groups, with or without laminin 511-E8 fragments 2.1 nM
Description: A rabbit corneal endothelium was mechanically detached to make a bullous keratopathy model. Adhesion of injected cells to a substrate after 24 hours was compared between individuals injected with cultured rabbit corneal endothelial cells together with a ROCK inhibitor Y-27632 (+) (100 μM) into the anterior chamber and individuals injected with cells together with laminin 511-E8 fragments (2.1 nM) and Y-27632 (+) (100 μM). The rabbit was euthanized after 24 hours. Corneal tissue was extracted and subjected to phalloidin staining to evaluate the morphology and cell count of adhered cells.

[2] = system: rabbit bullous keratopathy model; assay: Cultured corneal endothelium transplantation in rabbit bullous keratopathy model using laminin 511-E8 fragment; assay type: in vivo
Description: A rabbit corneal endothelium was mechanically detached using a 20 gauge silicone needle (Soft Tapered Needle; Inami & Co., Ltd., Tokyo, Japan) to make a bullous keratopathy model. The control group is a produced model that was not injected with cells. The RCEC group was injected with cultured rabbit corneal endothelial cells in the anterior chamber of the produced model and was maintained in a face-down posture for three hours. Further, the RCEC+E8 group was injected with cultured rabbit corneal endothelial cells, together with DMEM containing laminin 511-E8 fragments adjusted to a concentration of 2.1 nM, into the anterior chamber of the produced model and was maintained in a face-down posture for three hours.
The corneal thickness of an individual produced in FIG. 1 was measured sequentially with an ultrasound pachymeter (SP-2000; Tomey, Nagoya, Japan). When unmeasurable, 1200 μm, which is the measurable upper limit value, was used.
The histological examination in FIG. 3 was conducted as follows. The examination was checking normal functioning with immunostaining using Na^+/K^+-ATPase and ZO-1. This is for examining the functions of corneal endothelial cells, pumping function and barrier function. Na^+/K^+-ATPase and ZO-1 indicate normalcy of corneal endothelial cell functions, pumping function and barrier function, respectively. The approach is as follows.
After cells were immobilized, ZO-1 and Na^+/K^+-ATPase were used as function associated markers and immunostaining was applied for observation with a fluorescence microscope. For tissue staining inspection, cornea tissue extracted from a rabbit was immobilized with 4% formaldehyde for 10 minutes at room temperature (RT) and was incubated for 30 minutes with 1% bovine serum albumin (BSA). To find the phenotype of regenerated corneal endothelial tissue, immunohistochemical analysis was performed on an adhesion binding associated protein ZO-1 and pumping function associated protein Na^+/K^+-ATPase. ZO-1 and Na^+/K^+-ATPase were used as markers associated with cell functions. ZO-1 and Na^+/K^+-ATPase were stained using 1:200 dilution of ZO-1 polyclonal antibodies (Zymed Laboratories, Inc., South San Francisco, Calif.) and Na^+/K^+-ATPase monoclonal antibodies (Upstate Biotec, Inc., Lake Placid, N.Y.). 1:2000 dilution of Alexa Fluor®488 label (Life Technologies Corp., Carlsbad, Calif.) was used as the secondary antibody. The nucleus of cells was then stained with DAPI (Vector Laboratories, Inc., Burlingame, Calif.). The cell morphology was further stained with 1:400 dilution of Alexa Fluor® 488-conjugated phalloidin (Life Technologies Corp., Carlsbad, Calif.). The slide was then observed under a fluorescence microscope (TCS SP2 AOBS; Leica Microsystems, Welzlar, Germany).

[3] = system: human corneal endothelial cells; assay: Adhesion of corneal endothelial cells (CellTiter-Glo, 24 hours after seeding); assay type: cell-based; settings: laminin 511-E8 fragments 2.1 nM added on seeding; relative to fragment free cells; HCEC
Description: The medium was completely removed from a culture dish culturing human corneal endothelial cells. The cells were washed twice with PBS (−). After washing, phosphate buffer was added, and the mixture was incubated for 5 minute at 37° C. (5% CO2). Subsequently, PBS (−) was removed and TrypLE™ Select (10×) (Life Technologies, A12177-01) was added. The mixture was incubated for 10 minutes at 37° C. (5% CO2). Opti-MEMI (Life Technologies, 31985-070) was then added to collect the cells. After collecting the cells, the cells were centrifuged for 3 minutes at 1200 rpm to make a cell suspension with Opti-MEM I. At this time, a laminin 511-E8 fragment free group was prepared as a control, as well as a group supplemented with laminin 511-E8 fragments so that the final concentration was 2.1 nM. At the same time, mouse IgG and integrin neutralizing antibody were added to the laminin 511-E8 fragment added group to adjust the final concentration to 2 μg/ml. After the adjustment, cells were seeded on a 96-well plate at 5000 cells/well and were incubated for 24 hours at 37° C. (5% CO2). After 24 hours of seeding, the medium was completely removed and the cells were washed twice with PBS (−). After washing, a medium and CellTiter-Glo Luminescent Cell Viability Assay (Promega Corporation, Madison, Wis.) were added at a ratio of 1:1. […]

[4] = system: rabbit bullous keratopathy model; assay: Cultured corneal endothelium transplantation in rabbit bullous keratopathy model with or without Descemet's membrane detachment, laminin with ROCK inhibitor (4 groups); assay type: in vivo; settings: 14 days after transplantation, laminin 511-E8 fragment (2.1 nM) added group, with Y-27632 100 μM
Description: Tests were conducted with 4 groups of 4 rabbits, i.e., group injected with cultured corneal endothelial cells together with Y-27632 (+) (100 μM) after detaching corneal endothelial cells without detaching the Descemet's membrane, group injected with cells together with laminin 511-E8 fragments (2.1 nM) and Y-27632 (+) (100 μM) after detaching corneal endothelial cells without detaching the Descemet's membrane, group in which a bullous keratopathy model with detached Descemet's membrane was injected with cells together with Y-27632 (100 μM), and group in which a bullous keratopathy model with detached Descemet's membrane was injected with cells together with laminin 511-E8 fragments (2.1 nM) and Y-27632 (+) (100 μM).
The corneal thickness was measured with an ultrasound pachymeter (SP-2000; Tomey, Nagoya, Japan). When unmeasurable, 1200 μm, which is the measurable upper limit value, was used. Further, the ocular pressure was measured with a Tonovet (M. E. Technica, Tokyo).
The histological examination shown in FIG. 8 was conducted in the same manner as in Example 1.

[5] = system: monkey bullous keratopathy model; assay: Laminin coating of corneal stroma in Descemet's membrane detached monkey bullous keratopathy model, then cell transplantation; assay type: in vivo; settings: cynomolgus monkey, laminin 511-E8 21 nM in anterior chamber for one hour (coating), then MCEC with 2.1 nM
Description: A cynomolgus monkey corneal endothelium was mechanically detached using a 20 gauge silicone needle (Soft Tapered Needle; Inami & Co., Ltd., Tokyo, Japan) to make a bullous keratopathy model. The Descemet's membrane was detached in the produced bullous keratopathy model. Laminin 511-E8 fragments were injected into the anterior chamber of the bullous keratopathy model at a concentration of 21 nM and the model was left standing for one hour. The corneal stroma exposed by detaching the Descemet's membrane was coated thereby in the living body. Subsequently, 5.0×10^5 cultured monkey corneal endothelial cells were injected with DMEM containing laminin 511-E8 fragments adjusted to a concentration of 2.1 nM into the anterior chamber of the bullous keratopathy model, which was maintained in a face-down posture for three hours as in Example 3.

p-FAK = assay: Western blot of cell adhesion associated protein Phospho-FAK in corneal endothelial cells; assay type: cell-based, human; settings: HCEC; laminin 511-E8 fragments 2.1 nM; three hours after seeding
Description: (§1) The medium was completely removed from a culture dish culturing human corneal endothelial cells. The cells were washed twice with PBS (−). After washing, phosphate buffer was added, and the mixture was incubated for 5 minute at 37° C. (5% CO2). Subsequently, PBS (−) was removed and TrypLE™ Select (10×) (Life Technologies, A12177-01) was added. The mixture was incubated for 10 minutes at 37° C. (5% CO2). Opti-MEMI (Life Technologies, 31985-070) was then added to collect the cells. After collecting the cells, the cells were centrifuged for 3 minutes at 1200 rpm to make a cell suspension with Opti-MEM I. At this time, a laminin 511-E8 fragment free group was prepared as a control, as well as a group supplemented with laminin 511-E8 fragments so that the final concentration was 2.1 nM. At the same time, mouse IgG and integrin neutralizing antibody were added to the laminin 511-E8 fragment added group to adjust the final concentration to 2 μg/ml. After adjustment, cells were seeded on a 12-well plate at 1×10^5 cells/well and proteins were collected after three hours of seeding. Western blot was used to detect Phospho-FAK (Cell Signaling TECHNOLOGY, 8556S), FAK (Cell Signaling TECHNOLOGY, 32855), and p-Paxillin (Cell Signaling TECHNOLOGY, 2541S). The dilution factor for each antibody was 1:1000. The densitometry was quantified using Image J.

[6] = system: monkey bullous keratopathy model; assay: Cultured corneal endothelium transplantation in monkey bullous keratopathy model with laminin 511-E8 fragments; assay type: in vivo; settings: cynomolgus monkey
Description: A cynomolgus monkey corneal endothelium was mechanically detached using a 20 gauge silicone needle (Soft Tapered Needle; Inami & Co., Ltd., Tokyo, Japan) to make a bullous keratopathy model. In FIG. 9, […] cultured monkey corneal endothelial cells were injected with DMEM containing laminin 511-E8 fragments adjusted to a concentration of 2.1 nM into the anterior chamber of the bullous keratopathy model, which was maintained in a face-down posture for three hours. In FIG. 10, the Descemet's membrane was detached in a produced bullous keratopathy model and, similarly, 5.0×10^5 cultured monkey corneal endothelial cells were injected with DMEM containing laminin 511-E8 fragments adjusted to a concentration of 2.1 nM into the anterior chamber of the bullous keratopathy model, which was maintained in a face-down posture for three hours.
The corneal thickness was measured with an ultrasound pachymeter (SP-2000; Tomey, Nagoya, Japan). When unmeasurable, 1200 μm, which is the measurable upper limit value, was used.

p-Paxillin = assay: Western blot of cell adhesion associated protein p-Paxillin in corneal endothelial cells; assay type: cell-based, human; settings: HCEC; laminin 511-E8 fragments 2.1 nM; three hours after seeding
Description: as §1

[7] = rabbit cornea after transplantation of RCEC with laminin 511-E8 fragments 2.1 nM

Molecule | adhering cell density [1] | corneal thickness ([2]; average on day 7, RCEC injected with laminin 511-E8 fragments 2.1 nM, ultrasound pachymeter) | N-cadherin (adherence junction) immunostaining [2, 7] | Na+/K+-ATPase (pumping function) immunostaining [2, 7] | ZO-1 (tight junction, barrier function) immunostaining [2, 7] | cell morphology by phalloidin staining [2, 7] | cornea appearance in pictures of anterior ocular segment ([2]; rabbit, cultured RCEC injected into anterior chamber with or without laminin 511-E8 fragments 2.1 nM, after one and two weeks) | number of adhering cells after 24 hours [3] | cell morphology by phalloidin staining [4] | cornea appearance (anterior ocular segment pictures) [5] | p-FAK (p-FAK) | cornea appearance (anterior ocular segment pictures) ([6]; Descemet's membrane detached, 5.0x10^5 MCEC with laminin 511-E8 2.1 nM, no coating) | corneal thickness becoming thin ([6]; Descemet's membrane detachment group) | healing of bullous keratopathy (anterior ocular segment pictures) ([6]; no Descemet's membrane detachment, 5.0x10^5 MCEC with laminin 511-E8 2.1 nM, up to Day 14) | corneal thickness becoming thin ([6]; without Descemet's membrane detachment) | p-Paxillin (p-Paxillin)
C[C@@H](N)[C@H]1CC[C@H](C(=O)Nc2ccncc2)CC1 [Y-27632, (R)-(+)-trans-(4-pyridyl)-4-(1-aminoethyl)-cyclohexanecarboxamide dihydrochloride monohydrate, reference compound] | 717.3 cells/mm^2 | – | – | – | – | – | – | – | – | – | – | – | – | – | – | –
B1 | 1662.8 cells/mm^2 | 637 μm | normally expressed | expressed | expressed | monolayer polygonal morphology | transparent and healed | 137.3±2.8% | normal monolayer polygonal morphology | transparent and healed | promoted | not transparent or healed | did not become thin | heal bullous keratopathy | it did | promoted
